We go through two substances from doi:10.1101/2022.08.03.502629.

The assay concerns the target antithrombin (UniProt P01008). The assay is described as follows: SPR. A general note: Surface plasmon resonance follows binding to a sensor surface in real time, without labels.
Chain of UniProt P01008 (P01008 33-464): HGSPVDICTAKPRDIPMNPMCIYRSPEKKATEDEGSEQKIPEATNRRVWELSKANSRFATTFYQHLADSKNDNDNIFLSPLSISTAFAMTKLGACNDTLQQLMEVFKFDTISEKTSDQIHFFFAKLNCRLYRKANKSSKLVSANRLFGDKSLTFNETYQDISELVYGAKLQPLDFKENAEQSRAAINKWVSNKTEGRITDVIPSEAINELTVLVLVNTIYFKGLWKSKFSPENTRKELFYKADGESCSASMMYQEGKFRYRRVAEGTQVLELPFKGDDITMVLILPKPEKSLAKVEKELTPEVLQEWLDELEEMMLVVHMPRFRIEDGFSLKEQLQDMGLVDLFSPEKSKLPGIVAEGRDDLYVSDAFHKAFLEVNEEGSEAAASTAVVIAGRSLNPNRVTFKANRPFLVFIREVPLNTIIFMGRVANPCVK

As a reminder, the Kd is the free concentration of one partner at which half of the binding sites on the other are occupied at equilibrium, for simple one-to-one binding. Low readings indicate higher affinity, high ones lower affinity. “S195A Gla-domainless factor Xa (domain or fragment)” showed a Kd of 416 nM.

The substance “K96Y S195A Gla-domainless factor Xa (domain or fragment)” registered a Kd of 460 nM.
